Tests used:
FcγRIIIa receptor [1] = target: FcγRIIIa receptor (UniProt P08637); experiment: SPR (Biacore), FcγRIIIa immobilised; sample with 9.6 % afucosylation
FcγRIIIa receptor [2] = target: FcγRIIIa receptor (UniProt P08637); experiment: SPR (Biacore), FcγRIIIa immobilised; sample with 5.1 % afucosylation
FcγRIIIa receptor [3] = target: FcγRIIIa receptor (UniProt P08637); experiment: SPR (Biacore), FcγRIIIa immobilised, run 1
FcγRIIIa receptor [4] = target: FcγRIIIa receptor (UniProt P08637); experiment: SPR (Biacore), FcγRIIIa immobilised, run 2

Chain of UniProt P08637 (P08637 17-208 limits assumed): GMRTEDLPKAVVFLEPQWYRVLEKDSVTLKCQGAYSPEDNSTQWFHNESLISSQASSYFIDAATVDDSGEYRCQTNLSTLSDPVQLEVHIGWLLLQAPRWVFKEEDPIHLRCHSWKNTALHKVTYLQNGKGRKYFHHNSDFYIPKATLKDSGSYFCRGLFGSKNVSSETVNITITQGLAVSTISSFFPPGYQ

Kd (FcγRIIIa receptor [1]) | Kd (FcγRIIIa receptor [2]) | Kd (FcγRIIIa receptor [3]) | Kd (FcγRIIIa receptor [4]) | Substance
306 nM | 328 nM |  |  | Itolizumab produced from Chinese Hamster Ovary (CHO) cell line (Bmab-600) (antibody)
 |  | 372 nM | 508 nM | Itolizumab produced from mouse derived NS0 cell line (T1h) (antibody)

From patent publication US20180087080A1
